Assay results as given in patent publication US20230192845A1 (BLINK BIOMEDICAL, published 2023).

Columns and labels:
[1] = molecular target: T1, human CD96 short isoform v2 expressed on CHO cells (human, UniProt P40200 22-585); assay: FCM, inhibition of hCD155-Fc binding to hCD96v2-CHO cells; relative IC50
T1 construct: also called hCD96v2; CD96v2; not shown: C-terminal HA-tag
T1 sequence: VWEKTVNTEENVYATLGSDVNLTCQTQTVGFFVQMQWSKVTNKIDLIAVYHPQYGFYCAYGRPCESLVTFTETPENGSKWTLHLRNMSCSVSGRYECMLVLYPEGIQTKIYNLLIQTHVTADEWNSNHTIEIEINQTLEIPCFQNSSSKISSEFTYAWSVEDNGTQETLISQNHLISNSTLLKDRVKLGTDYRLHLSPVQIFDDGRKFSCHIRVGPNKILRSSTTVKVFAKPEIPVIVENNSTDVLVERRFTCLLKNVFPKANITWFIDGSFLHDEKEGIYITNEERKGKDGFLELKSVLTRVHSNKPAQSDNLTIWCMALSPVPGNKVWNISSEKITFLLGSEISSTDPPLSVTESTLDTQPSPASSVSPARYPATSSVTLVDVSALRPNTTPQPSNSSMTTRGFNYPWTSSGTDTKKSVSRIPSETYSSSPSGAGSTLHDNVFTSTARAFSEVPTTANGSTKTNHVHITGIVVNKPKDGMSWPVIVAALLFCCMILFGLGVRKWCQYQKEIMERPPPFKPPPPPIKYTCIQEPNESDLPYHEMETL
Procedure: (§1) All candidates except BL006-2-19 that bound very weakly on hCD96v2 by FCM were tested for their capacity to inhibit the binding of human CD155 to hCD96v2 stably expressed on CHO cells. Human CD96-transfected CHO cells (3×10⁵ cells/well of 96-well plate) were incubated at +4° C. for 30 minutes with serial dilutions of anti-CD96 antibodies or isotype control antibody (in mIgG2a or mIgG2aD265A format) in the presence of 4 μg/mL of biotinylated hCD155-Fc (produced and biotinylated at BliNK).
(§2) % inhibition=(1−(MFI_wAb&CD155−MFI_CHO)/(MFI_wCD155−MFI_CHO))×100, where MFI_wAb&CD155 is the Mean Intensity Fluorescence (MFI) obtained with the hCD96-CHO cells incubated with the tested antibody and hCD155-hFc; MFI_CHO is the MFI obtained in the absence of hCD155 and mAbs; and MFI_wCD155 is the fluorescence with hCD155 but without pre-incubation with antibody (0% CD155 binding inhibition). The % of inhibition was plotted against antibody concentration and the IC50 values were calculated by using a nonlinear regression analysis model of the GraphPad Prism software.

[2] = molecular target: T1, human CD96 short isoform v2 expressed …; assay: FCM on hCD96v2-CHO cells
Procedure: FIG. 6: Binding profiles of anti-hCD96 antibodies on human CD96-transfected CHO cells (hCD96v2, short isoform). CHO cells expressing hCD96v2 were incubated with serial dilution of the indicated mIgG1 or mIgG2a anti-CD96 or isotype control antibodies. […] The results are expressed as the difference of mean fluorescence intensity (delta MFI) between cells stained with antibodies and cells without antibodies. Dose response curves were obtained from GraphPad prism software using a non-linear regression fit with a variable slope model (4 parameters). To simplify the reading, results from the various anti-hCD96 candidates are shown on 4 different panels.
The capacity of the identified mouse anti-CD96 antibodies to recognize the cell membrane expressed human CD96 was further analyzed by flow cytometry (FCM) by using CHO cells stably transfected with the CD96 short isoform v2 (CD96v2; Genbank accession number NM_005816, flanked in C-terminus with HA-tag) (SEQ ID NO: 268).
Mouse anti-CD96 antibodies and isotype control antibodies were incubated at various concentrations from 10 μg/mL to 4.6 ng/mL with CHO cells expressing human CD96 at +4° C. for 30 minutes. […] The differences between the mean fluorescence intensity (MFI) obtained for each of the antibody concentration and the intensity obtained in absence of primary antibody (delta-MFI), were calculated and plotted against the concentrations of antibodies.

[3] = molecular target: T1, human CD96 short isoform v2 expressed …; assay: FCM, inhibition of hCD155-Fc binding to hCD96v2-CHO cells
Procedure: as §1, §2

[4] = molecular target: T2, rhesus CD96 transiently expressed on CHO cells (rhesus, UniProt P40200 22-585 (human entry)); assay: flow cytometry on CHO cells transiently expressing rhesus CD96; antibody at 1 (thin line) and 10 µg/ml (thick dashed line), filled grey = isotype control
T2 construct: also called rhesus CD96, short isoform
T2 chain: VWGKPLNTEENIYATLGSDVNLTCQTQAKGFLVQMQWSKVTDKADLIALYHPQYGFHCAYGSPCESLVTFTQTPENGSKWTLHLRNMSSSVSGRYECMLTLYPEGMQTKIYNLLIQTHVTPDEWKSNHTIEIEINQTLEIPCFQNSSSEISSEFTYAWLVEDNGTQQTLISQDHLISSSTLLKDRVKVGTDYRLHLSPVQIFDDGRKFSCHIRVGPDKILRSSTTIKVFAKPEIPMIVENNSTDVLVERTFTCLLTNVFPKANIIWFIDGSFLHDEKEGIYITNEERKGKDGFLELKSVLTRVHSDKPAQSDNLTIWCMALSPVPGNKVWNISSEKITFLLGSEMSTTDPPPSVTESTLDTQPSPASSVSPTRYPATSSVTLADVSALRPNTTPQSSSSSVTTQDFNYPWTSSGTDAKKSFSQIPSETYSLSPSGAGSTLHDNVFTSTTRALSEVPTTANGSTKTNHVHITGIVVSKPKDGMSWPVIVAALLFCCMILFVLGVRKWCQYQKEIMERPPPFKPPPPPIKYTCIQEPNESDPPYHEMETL
Procedure: FIG. 7: Binding profiles of anti-CD96 antibodies on CHO cells transfected with rhesus CD96. Anti-CD96 antibodies or the corresponding isotype control mAbs were tested for their capacity to recognize rhesus CD96 transiently expressed on CHO cells by flow cytometry. Each histogram represents the overlay of the fluorescence intensity obtained for each antibody tested at 1 (black line) and 10 μg/ml (thick dashed black line) and compared to the fluorescence obtained with an isotypic control (filled grey histogram).
(§3) The capacity of the identified mouse anti-human CD96 antibodies to recognize the CD96 protein from other species was further analyzed by flow cytometry by using CHO cells expressing the mouse or the rhesus CD96. The expression of the species-specific CD96 on CHO cell surface was confirmed by using staining with appropriate anti-CD96 antibodies and flow cytometry on non-fixed cells. The rat anti-mCD96 antibody clone #630612 (R&D Systems) and the candidate BL006-9-1 (positive by ELISA on rhesus CD96) were used to confirm the expression of rhesus CD96, while the clone 6A6 (rat IgG2a, e-Bioscience) was used to verify the expression of mouse CD96.
(§4) Mouse anti-CD96 antibodies and isotype control antibodies were incubated at 10 or 1 μg/mL with CHO cells expressing different CD96 species at +4° C. for 30 minutes.

[5] = molecular target: T3, mouse CD96 expressed on CHO cells (mouse, UniProt Q3U0X8 22-602); assay: FCM on CHO cells expressing mouse CD96
T3 construct: whole, on cells; also called mCD96
T3 sequence (looked up): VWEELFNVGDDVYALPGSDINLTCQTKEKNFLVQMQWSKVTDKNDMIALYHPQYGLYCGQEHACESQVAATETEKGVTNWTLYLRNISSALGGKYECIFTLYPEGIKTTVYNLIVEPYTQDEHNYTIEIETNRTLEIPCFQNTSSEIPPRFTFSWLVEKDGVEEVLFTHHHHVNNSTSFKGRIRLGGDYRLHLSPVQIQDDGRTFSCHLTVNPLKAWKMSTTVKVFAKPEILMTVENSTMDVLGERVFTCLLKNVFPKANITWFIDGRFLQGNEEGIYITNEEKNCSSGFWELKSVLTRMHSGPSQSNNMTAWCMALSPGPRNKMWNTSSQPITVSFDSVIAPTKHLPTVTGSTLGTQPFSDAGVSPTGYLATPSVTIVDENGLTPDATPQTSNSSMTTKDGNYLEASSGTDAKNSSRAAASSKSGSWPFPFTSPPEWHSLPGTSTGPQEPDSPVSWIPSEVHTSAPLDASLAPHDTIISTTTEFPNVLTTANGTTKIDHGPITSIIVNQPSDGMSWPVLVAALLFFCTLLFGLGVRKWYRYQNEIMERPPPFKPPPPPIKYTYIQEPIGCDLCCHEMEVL
From the text: as §3, §4

B1: BL006-19-14G3-14K1 (antibody, V domains shown)
VH: QVTLKESGPGILQPSQTLSLTCSFSGFSLDTFGMGVGWIRQSSGKGLEWLAHIWWDDDKFYNPALKSRLTVSKDTSKNQVFLKIANVDTADTATYYCAHYYGSLSFDVWGTGTTVTVSS
VL: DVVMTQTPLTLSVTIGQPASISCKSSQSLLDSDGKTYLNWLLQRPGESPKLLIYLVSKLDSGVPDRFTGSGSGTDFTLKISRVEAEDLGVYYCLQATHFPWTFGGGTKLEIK
notes: Recombinant mIgG2a/kappa (also made as mIgG2a-D265A); also called BL006-19-14G3-14K1 #8; candidate NO 6
For B1, which IC50 [1] is on record?
Its IC50 is 2.67 nM.

And the EC50 [2]?
The EC50 was 3.1 nM.

And the “Maximum binding (delta MFI)” value [2]?
The value was 694000 delta MFI.

And the “Maximal Inhibition Capacity (%)” value [3]?
The value was 41.4%.

Does B1 bind [4]?
Result: binds

Does B1 bind [5]?
Result: no binding (tested: 1 and 10 µg/mL)

B2: BL006-19-29G5-29K1 (antibody, V domains shown)
VH: QVTLKESGPGILQSSQTLSLTCSFSGFSLSTFGMGVSWIRKPSGKGLEWLAHIFWDDDKRYNPSLKSRLTISKDTSSNQVFLMINSMDIADTATYYCTRGSNWFAYWGQGTLVTVSA
VL: DIVLTQSPASLAVSLGQRATISCRASESVDSYGNSFMHWYQQKPGQPPKLLIYRASNLESGIPARFSGSGSRTDFTLTINPVEADDVATYYCQQSNEDPLTFGAGTKLELK
notes: Recombinant mIgG2a/kappa (also made as mIgG2a-D265A); also called candidate NO 14
What does the source list for B2?
IC50 [1]: 5.24 nM; EC50 [2]: 2.98 nM; Maximum binding (delta MFI) [2]: 753000 delta MFI; Maximal Inhibition Capacity (%) [3]: 43.1%; binding result [4]: binds; binding result [5]: no binding (tested: 1 and 10 µg/mL)

B3: BL006-8-3G9-3K4 (antibody, V domains shown)
VH: QVQLQQSGAELVRPGASVKLSCKASGYRFTDYEMEWVKQTPVHGLEWIGAIDPETGGTAYNQKFKGKATVTADKSSRTAYMELRSLTSEDSAVYYCTREGDGSYGAYWGQGTLVTVSA
VL: DVMMTQTPLSLPVSLGDQASISCRSSQSIVYSNGNTYLEWYLQKPGQSPKLLMYKVSNRFSGVPDRFSGSGSGTDFTLKISRVEAEDLGVYYCFQGSHAPWTFGGGTKLEIK
notes: Recombinant mIgG2a/kappa (also made as mIgG2a-D265A); also called BL006-8-3G9-3K4 #6; candidate NO 4
With B3 as the binder, how does the EC50 [2] read?
The EC50 was 4.68 nM.

What about the “Maximum binding (delta MFI)” value [2] of the same binder?
Its value is 235000 delta MFI.

What about the “Maximal Inhibition Capacity (%)” value [3] of the same binder?
The value was < 5%.

Does B3 bind [4]?
Result: no binding (tested: 10 µg/ml)

Does B3 bind [5]?
Result: no binding (tested: 1 and 10 µg/mL)
